Measured values: patent EP4703382A1 (Kanglitai Biomedical (Qingdao) Co., Ltd., dated 2026)
Where “and” joins values, the source holds several entries; their conditions need not be identical. Identical values can stand only once. Like-named read-outs stand apart in the source and are kept apart here.

Tests used:
[1] = target: T1, human PDL1-Fc fusion protein (human); assay: ELISA, human PDL1-Fc coated 200 ng/well, anti-His HRP
T1 construct: also called human PDL1-Fc recombinant protein

[2] = target: T1, human PDL1-Fc fusion protein; assay: as above; remark: listed apart in the source
[3] = target: T1, human PDL1-Fc fusion protein; assay: BLI (ForteBIO Octet QKe), PDL1-Fc loaded, analyte 100 nM
[4] = target: T1, human PDL1-Fc fusion protein; assay: ELISA, human PDL1-Fc coated 200 ng/well, anti-His HRP; remark: listed apart in the source
[5] = target: T2, recombinant protein PD-L1-His (human, UniProt Q9NZQ7 19-238); assay: competitive ELISA, PDL1-his coated, competitor PD1-Fc 50 µg/mL
T2 construct: also called PD-L1-his fusion protein; human PDL1-his protein

[6] = target: T3, human PD-L1 expressed on Raji cells (human, UniProt Q9NZQ7 19-290); assay: flow cytometry competition on Raji-PDL1 cells, competitor PD1-Fc
T3 construct: whole, on cells; also called Raji-PDL1; PDL1 protein expressed on Raji cells

[7] = target: T1, human PDL1-Fc fusion protein; assay: ELISA, human PDL1-Fc coated 200 ng/well, anti-His HRP; remark: listed apart in the source

T2 sequence (Q9NZQ7 19-238 limits assumed): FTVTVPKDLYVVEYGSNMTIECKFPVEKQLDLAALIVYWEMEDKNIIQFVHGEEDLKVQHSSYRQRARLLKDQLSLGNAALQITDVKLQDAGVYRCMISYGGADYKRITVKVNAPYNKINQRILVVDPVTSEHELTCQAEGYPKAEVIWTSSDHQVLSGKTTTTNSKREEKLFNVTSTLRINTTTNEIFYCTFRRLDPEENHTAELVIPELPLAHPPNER
T1 sequence (chain, as listed by the source limits assumed): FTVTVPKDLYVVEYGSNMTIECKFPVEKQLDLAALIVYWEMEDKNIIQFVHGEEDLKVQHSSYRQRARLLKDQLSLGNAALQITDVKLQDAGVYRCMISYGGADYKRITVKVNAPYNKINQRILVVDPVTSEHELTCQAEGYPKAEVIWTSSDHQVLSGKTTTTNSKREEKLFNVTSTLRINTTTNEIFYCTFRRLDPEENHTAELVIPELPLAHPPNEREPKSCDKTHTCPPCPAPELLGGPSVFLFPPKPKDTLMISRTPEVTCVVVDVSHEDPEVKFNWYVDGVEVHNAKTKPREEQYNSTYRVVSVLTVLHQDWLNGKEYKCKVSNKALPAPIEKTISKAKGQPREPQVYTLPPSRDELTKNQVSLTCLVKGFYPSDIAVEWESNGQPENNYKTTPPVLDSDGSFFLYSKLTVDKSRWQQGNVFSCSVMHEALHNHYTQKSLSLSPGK
T3 sequence (Q9NZQ7 19-290): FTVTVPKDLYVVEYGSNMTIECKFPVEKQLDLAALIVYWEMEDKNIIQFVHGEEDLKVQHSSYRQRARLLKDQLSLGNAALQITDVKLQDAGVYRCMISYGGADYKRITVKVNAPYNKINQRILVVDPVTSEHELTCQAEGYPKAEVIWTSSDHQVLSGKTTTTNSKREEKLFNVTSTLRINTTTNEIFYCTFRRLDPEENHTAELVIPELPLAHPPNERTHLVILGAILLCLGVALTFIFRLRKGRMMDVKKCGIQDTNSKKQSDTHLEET

Binder | EC50 [1] | EC50 [2] | Kd [3] | EC50 [4] | IC50 [5] | IC50 [6] | EC50 [7]
Fusion 2 (other, murine, PDL1-1 nanobody fused with murine IL-12; two plasmids co-transfected 1:1; also called mP35-6his + mP40-P1) chain 1: RVIPVSGPARCLSQSRNLLKTTDDMVKTAREKLKHYSCTAEDIDHEDITRDQTSTLKTCLPLELHKNESCLATRETSSTTRGSCLPPQKTSLMMTLCLGSIYEDLKMYQTEFQAINAALQNHNHQQIILDKGMLVAIDELMQSLNHNGETLRQKPPVGEADPYRVKMKLCILLHAFSTRVVTINRVMGYLSSAHHHHHH chain 2: MWELEKDVYVVEVDWTPDAPGETVNLTCDTPEEDDITWTSDQRHGVIGSGKTLTITVKEFLDAGQYTCHKGGETLSHSHLLLHKKENGIWSTEILKNFKNKTFLKCEAPNYSGRFTCSWLVQRNMDLKFNIKSSSSSPDSRAVTCGMASLSAEKVTLDQRDYEKYSVSCQEDVTCPTAEETLPIELALEARQQNKYENYSTSFFIRDIIKPDPPKNLQMKPLKNSQVEVSWEYPDSWSTPHSYFSLKFFVRIQRKKEKMKETEEGCNQKGAFLVEKTSTEVQCKGGNVCVQAQDRYYNSSCSKWACVPCRVRSGGGGSGGGGSGGGGSQVQLQESGGGLVQPGGSLTLSCAASGFTVSNSAVSWARQAPGKGLEWVSLIDSNRNTVYAQSVRGRFTISRDNVKNTVYLQMNSLKPEDTAVYYCAKGIWGSTLTGQGTQVTVSS | 4.1 µg/mL and 54.3 nM | – | – | – | – | – | –
PDL1-1v15 (VHH, Humanized PDL1-1, His-tagged) VHH: QVQLVESGGGLVKPGGSLRLSCAASGFTVSNSAVSWARQAPGKGLEWVSLIDSNRNTVYAQSVRGRFTISRDNAKNTVYLQMNSLRAEDTAVYYCAKGIWGSTLWGQGTTVTVSS | – | 0.0432 mg/L | 0.0108 µM | – | – | – | –
PDL1-1v18 (VHH, Humanized PDL1-1, His-tagged) VHH: QVQLVESGGGLVKPGGSLRLSCAASGFTVSNSAVSWARQAPGKGLEWVSLIDSNRNTVYAQSVRGRFTISRDNAKNSVYLQMNSLRAEDTAVYYCAKGIWGSTLTGQGTTVTVSS | – | – | 0.00416 µM | 0.0182 mg/L | 5.22 mg/L | 0.694 mg/L | –
PDL1-1v12 (VHH, Humanized PDL1-1, His-tagged) VHH: QVQLVESGGGLVQPGGSLRLSCAASGFTVSNSAVSWARQAPGKGLEWVSLIDSNRNTVYAQSVRGRFTISRDNAKNSVYLQMNSLRAEDTAVYYCAKGIWGSTLWGQGTTVTVSS | – | – | 0.389 µM | 1.24 mg/L | – | – | –
PDL1-1v16 (VHH, Humanized PDL1-1, His-tagged) VHH: QVQLVESGGGLVKPGGSLRLSCAASGFTVSNSAVSWARQAPGKGLEWVSLIDSNRNTVYAQSVRGRFTISRDNAKNSVYLQMNSLKAEDTAVYYCAKGIWGSTLWGQGTTVTVSS | – | 0.0629 mg/L | 0.0143 µM | – | – | – | –
PDL1-1v10 (VHH, Humanized PDL1-1, His-tagged) VHH: EVQLLESGGGLVQPGGSLRLSCAASGFTVSNSAVSWARQAPGKGLEWVSLIASNRNTVYAQSVRGRFTISRDNSKNTVYLQMNSLRAEDTAVYYCAKGIWGSTLWGQGTTVTVSS | – | – | 0.0305 µM | – | – | – | ~110 mg/L
PDL1-1v8 (VHH, Humanized PDL1-1, His-tagged) VHH: EVQLLESGGGLVQPGGSLRLSCAASGFTVSNSAVSWARQAPGKGLEWVSLIDSNRNTVYAQSVRGRFTISRDNSKNTVYLQMNSLRAEDTAVYYCAKGIWGSTLTGQGTTVTVSS | – | – | 0.0059 µM | – | 5.58 mg/L | 0.458 mg/L | 0.0108 mg/L
PDL1-1v20 (VHH, Humanized PDL1-1, His-tagged) VHH: QVQLVESGGGLVKPGGSLRLSCAASGFTVSNSAVSWARQAPGKGLEWVSLIASNRNTVYAQSVRGRFTISRDNAKNSVYLQMNSLRAEDTAVYYCAKGIWGSTLWGQGTTVTVSS | – | – | 0.0325 µM | 0.875 mg/L | – | – | –
PDL1-1v2 (VHH, Humanized PDL1-1, His-tagged) VHH: QVQLVESGGGLVKPGGSLRLSCAASGFTVSNSAVSWARQAPGKGLEWVSLIDSNRNTVYAQSVRGRFTISRDNAKNSVYLQMNSLRAEDTAVYYCAKGIWGSTLWGQGTTVTVSS | – | 0.0423 mg/L | 0.0143 µM | 0.0591 mg/L | – | – | –
PDL1-1v14 (VHH, Humanized PDL1-1, His-tagged) VHH: QVQLVESGGGLVKPGGSLRLSCAASGFTVSNSAVSWARQAPGKGLEWVSLIDSNRNTVYAQSVRGRFTISRDNVKNSVYLQMNSLRAEDTAVYYCAKGIWGSTLWGQGTTVTVSS | – | 0.0342 mg/L | 0.00737 µM | – | 37.1 mg/L | 4.58 mg/L | –
PDL1-1v3 (VHH, Humanized PDL1-1, His-tagged) VHH: QVQLLESGGGLVQPGGSLRLSCAASGFTVSNSAVSWARQAPGKGLEWVSLIDSNRNTVYAQSVRGRFTISRDNSKNTVYLQMNSLRAEDTAVYYCAKGIWGSTLWGQGTTVTVSS | – | – | 0.0185 µM | – | – | – | 0.0336 mg/L
PDL1-1v13 (VHH, Humanized PDL1-1, His-tagged) VHH: QVQLVESGGGLVKPGGSLTLSCAASGFTVSNSAVSWARQAPGKGLEWVSLIDSNRNTVYAQSVRGRFTISRDNAKNSVYLQMNSLRAEDTAVYYCAKGIWGSTLWGQGTTVTVSS | – | – | 0.0114 µM | 0.0461 mg/L | – | – | –
PDL1-1v17 (VHH, Humanized PDL1-1, His-tagged) VHH: QVQLVESGGGLVKPGGSLRLSCAASGFTVSNSAVSWARQAPGKGLEWVSLIDSNRNTVYAQSVRGRFTISRDNAKNSVYLQMNSLRPEDTAVYYCAKGIWGSTLWGQGTTVTVSS | – | – | 0.0102 µM | 0.0664 mg/L | – | – | –
PDL1-1v19 (VHH, Humanized PDL1-1, His-tagged) VHH: QVQLVESGGGLVKPGGSLRLSCAASGFTVSNSAVSWARQAPGKGLEWVSLIDSNRNTVYAQSVRGRFTISRDNAKNSVYLQMNSLRAEDTAVYYCAKGIWGSTLWGQGTQVTVSS | – | – | 0.00986 µM | 0.0484 mg/L | 18.8 mg/L | 2.59 mg/L | –
PDL1-1v11 (VHH, Humanized PDL1-1, His-tagged) VHH: QVQLQESGGGLVKPGGSLRLSCAASGFTVSNSAVSWARQAPGKGLEWVSLIDSNRNTVYAQSVRGRFTISRDNAKNSVYLQMNSLRAEDTAVYYCAKGIWGSTLWGQGTTVTVSS | – | 0.02 mg/L | 0.00586 µM | – | 31.1 mg/L | 2.48 mg/L | –
PDL1-1v6 (VHH, Humanized PDL1-1, His-tagged) VHH: EVQLLESGGGLVQPGGSLRLSCAASGFTVSNSAVSWARQAPGKGLEWVSLIDSNRNTVYAQSVRGRFTISRDNSKNTVYLQMNSLKAEDTAVYYCAKGIWGSTLWGQGTTVTVSS | – | – | 0.0221 µM | – | – | – | 0.0505 mg/L
Fusion 1 (other, murine, PDL1-1 nanobody fused with murine IL-12; two plasmids co-transfected 1:1; also called mP35-P1-8his + mP40) chain 1: RVIPVSGPARCLSQSRNLLKTTDDMVKTAREKLKHYSCTAEDIDHEDITRDQTSTLKTCLPLELHKNESCLATRETSSTTRGSCLPPQKTSLMMTLCLGSIYEDLKMYQTEFQAINAALQNHNHQQIILDKGMLVAIDELMQSLNHNGETLRQKPPVGEADPYRVKMKLCILLHAFSTRVVTINRVMGYLSSAGGGGSGGGGSGGGGSQVQLQESGGGLVQPGGSLTLSCAASGFTVSNSAVSWARQAPGKGLEWVSLIDSNRNTVYAQSVRGRFTISRDNVKNTVYLQMNSLKPEDTAVYYCAKGIWGSTLTGQGTQVTVSSHHHHHHHH chain 2: MWELEKDVYVVEVDWTPDAPGETVNLTCDTPEEDDITWTSDQRHGVIGSGKTLTITVKEFLDAGQYTCHKGGETLSHSHLLLHKKENGIWSTEILKNFKNKTFLKCEAPNYSGRFTCSWLVQRNMDLKFNIKSSSSSPDSRAVTCGMASLSAEKVTLDQRDYEKYSVSCQEDVTCPTAEETLPIELALEARQQNKYENYSTSFFIRDIIKPDPPKNLQMKPLKNSQVEVSWEYPDSWSTPHSYFSLKFFVRIQRKKEKMKETEEGCNQKGAFLVEKTSTEVQCKGGNVCVQAQDRYYNSSCSKWACVPCRVRS | 0.373 µg/mL and 4.93 nM | – | – | – | – | – | –
